{"source": "IntAct's records for PubMed 29892012", "parents": {"B1": {"name": "Kinetochore protein NDC80 homolog (Homo sapiens), O14777 (parent)", "chain": "MKRSSVSSGGAGRLSMQELRSQDVNKQGLYTPQTKEKPTFGKLSINKPTSERKVSLFGKRTSGHGSRNSQLGIFSSSEKIKDPRPLNDKAFIQQCIRQLCEFLTENGYAHNVSMKSLQAPSVKDFLKIFTFLYGFLCPSYELPDTKFEEEVPRIFKDLGYPFALSKSSMYTVGAPHTWPHIVAALVWLIDCIKIHTAMKESSPLFDDGQPWGEETEDGIMHNKLFLDYTIKCYESFMSGADSFDEMNAELQSKLKDLFNVDAFKLESLEAKNRALNEQIARLEQEREKEPNRLESLRKLKASLQGDVQKYQAYMSNLESHSAILDQKLNGLNEEIARVELECETIKQENTRLQNIIDNQKYSVADIERINHERNELQQTINKLTKDLEAEQQKLWNEELKYARGKEAIETQLAEYHKLARKLKLIPKGAENSKGYDFEIKFNPEAGANCLVKYRAQVYVPLKELLNETEEEINKALNKKMGLEDTLEQLNAMITESKRSVRTLKEEVQKLDDLYQQKIKEAEEEDEKCASELESLEKHKHLLESTVNQGLSEAMNELDAVQREYQLVVQTTTEERRKVGNNLQRLLEMVATHVGSVEKHLEEQIAKVDREYEECMSEDLSENIKEIRDKYEKKATLIKSSEE", "partner": "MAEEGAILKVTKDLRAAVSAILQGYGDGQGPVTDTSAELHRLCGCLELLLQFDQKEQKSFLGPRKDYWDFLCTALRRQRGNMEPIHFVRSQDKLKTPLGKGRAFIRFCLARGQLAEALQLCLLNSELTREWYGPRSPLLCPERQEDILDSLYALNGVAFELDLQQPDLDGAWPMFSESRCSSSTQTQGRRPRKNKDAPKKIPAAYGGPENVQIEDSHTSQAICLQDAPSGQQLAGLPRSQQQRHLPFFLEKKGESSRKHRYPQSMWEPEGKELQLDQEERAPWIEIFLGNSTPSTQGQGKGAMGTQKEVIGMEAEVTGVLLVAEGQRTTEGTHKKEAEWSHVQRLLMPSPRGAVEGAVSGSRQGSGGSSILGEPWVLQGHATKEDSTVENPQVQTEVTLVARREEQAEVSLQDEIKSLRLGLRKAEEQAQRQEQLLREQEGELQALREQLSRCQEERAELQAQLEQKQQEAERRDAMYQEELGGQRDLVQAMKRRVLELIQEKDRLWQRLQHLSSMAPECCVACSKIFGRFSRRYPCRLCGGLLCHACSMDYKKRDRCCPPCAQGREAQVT"}, "B2": {"name": "Vacuolar protein-sorting-associated protein 25 (Homo sapiens), Q9BRG1 (parent)", "chain": "MAMSFEWPWQYRFPPFFTLQPNVDTRQKQLAAWCSLVLSFCRLHKQSSMTVMEAQESPLFNNVKLQRKLPVESIQIVLEELRKKGNLEWLDKSKSSFLIMWRRPEEWGKLIYQWVSRSGQNNSVFTLYELTNGEDTEDEEFHGLDEATLLRALQALQQEHKAEIITVSDGRGVKFF", "partner": "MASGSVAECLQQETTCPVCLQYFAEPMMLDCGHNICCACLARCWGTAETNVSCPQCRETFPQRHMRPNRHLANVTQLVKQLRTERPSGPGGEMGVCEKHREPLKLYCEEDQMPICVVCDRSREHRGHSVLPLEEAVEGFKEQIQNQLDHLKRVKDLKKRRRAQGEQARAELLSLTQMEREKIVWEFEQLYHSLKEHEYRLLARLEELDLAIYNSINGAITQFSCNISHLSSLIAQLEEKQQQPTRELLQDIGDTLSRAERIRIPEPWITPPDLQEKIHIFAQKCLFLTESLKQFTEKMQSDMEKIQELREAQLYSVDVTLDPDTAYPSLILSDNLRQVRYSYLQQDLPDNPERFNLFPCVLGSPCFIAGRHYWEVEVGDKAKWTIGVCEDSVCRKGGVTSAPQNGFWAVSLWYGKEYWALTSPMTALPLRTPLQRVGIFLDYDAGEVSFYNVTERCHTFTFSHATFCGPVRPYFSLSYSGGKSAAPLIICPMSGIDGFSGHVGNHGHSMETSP"}, "B3": {"name": "Kinetochore protein NDC80 homolog (Homo sapiens), O14777 (parent)", "chain": "B1 chain", "partner": "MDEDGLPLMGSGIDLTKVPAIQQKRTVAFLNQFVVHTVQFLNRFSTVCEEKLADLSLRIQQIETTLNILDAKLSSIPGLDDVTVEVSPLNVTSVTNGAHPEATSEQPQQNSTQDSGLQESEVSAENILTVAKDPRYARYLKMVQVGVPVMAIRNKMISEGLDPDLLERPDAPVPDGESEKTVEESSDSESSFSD"}, "B4": {"name": "Keratin, type I cuticular Ha8 (Homo sapiens), O76015 (parent)", "chain": "MTSSYSSSSCPLGCTMAPGARNVSVSPIDIGCQPGAEANIAPMCLLANVAHANRVRVGSTPLGRPSLCLPPTCHTACPLPGTCHIPGNIGICGAYGENTLNGHEKETMQFLNDRLANYLEKVRQLEQENAELEATLLERSKCHESTVCPDYQSYFHTIEELQQKILCSKAENARLIVQIDNAKLAADDFRIKLESERSLRQLVEADKCGTQKLLDDATLAKADLEAQQESLKEEQLSLKSNHEQEVKILRSQLGEKLRIELDIEPTIDLNRVLGEMRAQYEAMLETNRQDVEQWFQAQSEGISLQDMSCSEELQCCQSEILELRCTVNALEVERQAQHTLKDCLQNSLCEAEDRFGTELAQMQSLISNVEEQLSEIRADLERQNQEYQVLLDVKTRLENEIATYRNLLESEDCKLPCNPCSTSPSCVTAPCAPRPSCGPCTTCGPTCGASTTGSRF"}, "B5": {"name": "F-box/LRR-repeat protein 12 (Homo sapiens), Q9NXK8 (parent)", "chain": "MATLVELPDSVLLEIFSYLPVRDRIRISRVCHRWKRLVDDRWLWRHVDLTLYTMRPKVMWHLLRRYMASRLHSLRMGGYLFSGSQAPQLSPALLRALGQKCPNLKRLCLHVADLSMVPITSLPSTLRTLELHSCEISMAWLHKQQDPTVLPLLECIVLDRVPAFRDEHLQGLTRFRALRSLVLGGTYRVTETGLDAGLQELSYLQRLEVLGCTLSADSTLLAISRHLRDVRKIRLTVRGLSAPGLAVLEGMPALESLCLQGPLVTPEMPSPTEILSSCLTMPKLRVLELQGLGWEGQEAEKILCKGLPHCMVIVRACPKESMDWWM"}, "B6": {"name": "Keratin, type I cuticular Ha8 (Homo sapiens), O76015 (parent)", "chain": "B4 chain", "partner": "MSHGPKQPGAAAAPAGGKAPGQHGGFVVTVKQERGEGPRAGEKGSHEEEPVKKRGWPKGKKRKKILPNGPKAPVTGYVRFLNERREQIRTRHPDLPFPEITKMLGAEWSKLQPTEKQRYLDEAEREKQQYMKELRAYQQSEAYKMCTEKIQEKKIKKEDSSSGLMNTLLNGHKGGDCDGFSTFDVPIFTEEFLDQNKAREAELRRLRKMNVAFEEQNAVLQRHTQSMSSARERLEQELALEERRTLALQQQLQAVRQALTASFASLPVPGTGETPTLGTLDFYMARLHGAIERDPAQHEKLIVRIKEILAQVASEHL"}, "B7": {"name": "Keratin, type I cuticular Ha8 (Homo sapiens), O76015 (parent)", "chain": "B4 chain", "partner": "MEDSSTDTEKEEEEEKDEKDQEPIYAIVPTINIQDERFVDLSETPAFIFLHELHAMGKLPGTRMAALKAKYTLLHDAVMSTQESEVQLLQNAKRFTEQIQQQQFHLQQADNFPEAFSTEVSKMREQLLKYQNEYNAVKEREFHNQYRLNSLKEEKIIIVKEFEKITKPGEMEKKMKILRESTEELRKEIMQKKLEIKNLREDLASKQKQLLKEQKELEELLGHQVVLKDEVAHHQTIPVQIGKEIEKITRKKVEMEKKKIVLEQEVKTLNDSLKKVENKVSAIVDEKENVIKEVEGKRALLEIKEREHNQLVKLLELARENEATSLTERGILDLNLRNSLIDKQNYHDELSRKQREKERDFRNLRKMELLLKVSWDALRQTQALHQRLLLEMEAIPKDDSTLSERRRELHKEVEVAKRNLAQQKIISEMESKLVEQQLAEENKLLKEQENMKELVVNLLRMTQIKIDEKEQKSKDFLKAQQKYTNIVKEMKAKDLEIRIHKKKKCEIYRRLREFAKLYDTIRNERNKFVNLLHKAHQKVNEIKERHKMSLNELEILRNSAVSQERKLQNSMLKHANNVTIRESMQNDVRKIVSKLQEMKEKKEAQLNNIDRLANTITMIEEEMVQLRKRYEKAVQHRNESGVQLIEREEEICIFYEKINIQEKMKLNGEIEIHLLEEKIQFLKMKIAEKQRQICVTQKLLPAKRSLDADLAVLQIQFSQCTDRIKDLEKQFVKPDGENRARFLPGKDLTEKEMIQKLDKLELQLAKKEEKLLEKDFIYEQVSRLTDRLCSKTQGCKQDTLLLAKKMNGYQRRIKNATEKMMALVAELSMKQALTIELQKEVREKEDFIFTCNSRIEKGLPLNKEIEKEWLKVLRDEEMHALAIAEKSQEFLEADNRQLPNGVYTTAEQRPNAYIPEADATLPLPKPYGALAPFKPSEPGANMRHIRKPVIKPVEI"}}, "data": [{"variants_of": "B1", "conditions": "with rufy4_human RUFY4, Q6ZNE9", "values": [{"variant": "K288E", "effect of a mutation on the interaction": "with no effect"}]}, {"variants_of": "B2", "conditions": "with tri27_human TRIM27, P14373", "values": [{"variant": "P58Q", "effect of a mutation on the interaction": "disrupting interaction strength"}]}, {"variants_of": "B3", "conditions": "with wasc3_human WASHC3, Q9Y3C0", "values": [{"variant": "K288E", "effect of a mutation on the interaction": "with no effect"}]}, {"variants_of": "B4", "conditions": "with k22e_human KRT2, P35908", "values": [{"variant": "N270K", "effect of a mutation on the interaction": "with no effect"}]}, {"variants_of": "B4", "conditions": "with txnd5_human TXNDC5, Q8NBS9", "values": [{"variant": "N270K", "effect of a mutation on the interaction": "with no effect"}]}, {"variants_of": "B4", "conditions": "with prs8_human PSMC5, P62195", "values": [{"variant": "N270K", "effect of a mutation on the interaction": "with no effect"}]}, {"variants_of": "B4", "conditions": "with p85b_human PIK3R2, O00459", "values": [{"variant": "N270K", "effect of a mutation on the interaction": "with no effect"}]}, {"variants_of": "B4", "conditions": "with KRT6A", "values": [{"variant": "N270K", "effect of a mutation on the interaction": "with no effect"}]}, {"variants_of": "B4", "conditions": "with k2c4_human KRT4, P19013", "values": [{"variant": "N270K", "effect of a mutation on the interaction": "with no effect"}]}, {"variants_of": "B4", "conditions": "with txlnb_human TXLNB", "values": [{"variant": "N270K", "effect of a mutation on the interaction": "with no effect"}]}, {"variants_of": "B4", "conditions": "with KRT79, Q5XKE5", "values": [{"variant": "N270K", "effect of a mutation on the interaction": "with no effect"}]}, {"variants_of": "B4", "conditions": "with txlna_human TXLNA", "values": [{"variant": "N270K", "effect of a mutation on the interaction": "with no effect"}]}, {"variants_of": "B5", "conditions": "with dock8_human DOCK8, Q8NF50", "values": [{"variant": "I313V", "effect of a mutation on the interaction": "with no effect"}]}, {"variants_of": "B6", "conditions": "with hm20b_human HMG20B", "values": [{"variant": "D306A", "effect of a mutation on the interaction": "with no effect"}]}, {"variants_of": "B6", "conditions": "with hm20b_human HMG20B", "remark": "another data set of the same source", "values": [{"variant": "N270K", "effect of a mutation on the interaction": "with no effect"}]}, {"variants_of": "B7", "conditions": "with cc146_human CCDC146, Q8IYE0", "values": [{"variant": "N270K", "effect of a mutation on the interaction": "with no effect"}]}]}
